Data on one molecule can be found in US20020165140A1 (ANGIOGENETICS SWEDEN, published 2002).

For one assay, the target named is T1, GAL4-HIF-1α/526-826 (UniProt P04386 1-147; Q16665 526-826).
T1 construct: In vitro translated
The assay is described as follows: coimmunoprecipitation of 35S-IPAS with anti-GAL4 antibody, in vitro translated proteins.

A further assay addresses T2, GAL4 DBD (UniProt P04386 1-147, limits assumed).
T2 construct: Control in the coprecipitation assay
The assay is described as above.

Experimental for GAL4 DBD: (§1) Precipitated fraction was analyzed by SDS PAGE and results were obtained by autoradiography.
(§2) After brief centrifugation, coimmunoprecipitated proteins were analyzed by SDS-PAGE.
Experimental for GAL4-HIF-1α/526-826: as §1, §2

B1: Inhibitory PAS Domain Protein (IPAS), in vitro translated (other)
chain: MALGLQRVRSNTELRKEKSRDAARSRRSQETEVLYQLAHTLPFARGVSAHLDKASIMRLTISYLRMHRLCAAGGKRGRATGRLLPEGPGGFRHGTHRRGRHGLPVGKCQQAPGPQSVDLCSSSLIHNPTPGTNFSLELIGHSIFDFIHPCDQEELQDALTPRPNLSKKKLEAPTERHFSLRMKSTLTSRGRTLNLKAATWKVLHCSGHMRAYKPPAQTSPAGSPRSEPPLQCLVLICEAIPQLPFHDGATLGLPQEKTPISTLFTPLWKALLCLVKRWPVQVLQGKGTESSLPSWVLWALNRKNCPG
modifications: 35S-labeled methionine (in the coprecipitation assay)
notes: Polypeptide of 307 amino acids; generated by in vitro translation in rabbit reticulocyte lysate; also called mouse IPAS; mIPAS
Consider B1, for which the binding result in the assay with GAL4-HIF-1α/526-826 and with GAL4 DBD was “no binding” throughout.
